The nature of the data set: soluble on expression in E. coli; label from the status in PepcDB or PDB records.
Take “MGSDKIHHHHHHMILQVQPAKLIKRYKRFLADIELNCGEETTIHCANTGAMKGCAEPDDTVWYTTSTNTKRKYPFSWEITQSQDDHFICVNTLRANQLVEEALHLDLIKELSGFNELKREVKYGNENSRVDFLATYNNAPDTYIEVKSVTLLESGHGYFPDAVTTRGQKHLRELMDMVAQGHKAVLLFAVLHSGINDISAASHVDPIYAKLLKEARLAGVEIIAYKAGFSLQLGELDVKLVEKIPFIER”: the “soluble on expression in E. coli” value is “not soluble”. As to “MGSDKIHHHHHHMIMQLDCALYQHPKLITVFGGSGFVGRHVVEALTKRGYRVRIAVRSPQKAYYMLQIGEVGQTQMLRTDIKCRASVARALLGSDGAVFLPGSLAQANQPNFQKTQIEGAQNVSELTAEAGIPLIYMSALVANKNASFLYARVKSMSEEIIHNEHPQAIIMRPSIIFGPEDCFFNNLANLSCFLPIIPLFGGGQSKLQPVYVGDVAEFIVRALEGQVISGKSYDLGGPQIITFQNVLEYILKIIHRKKTILSMPLSAGLFIGGLLGTIGKLPLAPTLVTASQIRFLQIDNIVSQEAIENGYTLEGVGITPKAMAALLPSYLWRFRPHGQFSRNLPA”, the “soluble on expression in E. coli” value is reported as “not soluble”. The entry for “MGSDKIHHHHHHMINTKEDFLLLIKQIEQKSGYKKPKAFGIARLDRGQLNKNKILQASFALINYEQNFGSAAIMLEAFMQRGVEIDFNASEFVQTLKLEDIDFALSCFKPFLEEDGHQNIDLLKIIKDKFKDDEFSFVCLFEDKEPLSVESIYLKLYLLSTKKVPLRSINLNGAFGLLSNVAWSDDKPIELEYLRANEMRLKMSNQYPKIDFVDKFPRFLAHIIPEDNTRILESSKVRMGASLAAGTTIMPGASYVNFNAGTTGACMVEGRISSSAIVGEGSDVGGGASILGVLSGTSGNAISVGKACLLGANSVTGIPLGDNCIVDAGIAVLEGTKFLLKDAEELAKLNPYFNFDKEIYKGLELKGLNGLHFRQDSISGAMIVALNKKAVKLNEALH” is “not soluble”. “MGSDKIHHHHHHMIPIEIDSGSGFCFGVVNAIRHAEKQLEKSSDKLYCLGDIVHNTLEVERLGKKGLETIDYDAFSRLRGAKVLLRAHGEPPEIYRMAGENGVTIIDATCPVVLRLQNKIKSRYEATRSLGAQVVIYGKRGHAEVNGLVGQTEGTAIVIESEEELDKIDYTRPVILFSQTTKSLEGFGQIIDSISTRMQPGVTFEHHDTICRQVANRIPHIGAFATAHELVFFVAGEKSSNGKVLFGHCLAANPRSIFISSPEVIVPDMLVPLPASIGICGATSTPRWQMEEVASHIKALL”: the “soluble on expression in E. coli” value is on record as “not soluble”. Turning to “MGSDKIHHHHHHMIPSSMKAMVLKGHGGIDQLMYQDVPVPQPREGEVLVQVTATAKNNTDRKAREGLYPTKKGEMTSFQMGGKPTLTFPRIQGADIVGRIVAVGAGVSEQRIGERGLLDFNIYADNRTDINLTPDYYGHGADGGYAEYVALPSDQFHHIPNPDLADAELASMGMCSYQTAYHMLTSANIQAGERVLVTGASGGVGTALIQLCRIIGAIPYALSQKDKADSLLKLGAEAVLDRTDMDSFVDRVKAETGGKPLDAVMDLVGGDMTDRFIDAMIFDMNARSTYPRLSIAGASGGNISEILWTRIYLYQVQIFGVSHGTREEAEQLMRWIRSGDLKPVLHGAFRLSELHRAEEYFVNRGSNYLGKIVIVPDAQWQEHGQPYEVEAD”, the “soluble on expression in E. coli” value is given as “not soluble”. The entry for “MGSDKIHHHHHHMIQADEVAERRLMNIPISGGQHGLFERLFAELRPKLHRYCARMTGSVFDGEDVLQETLAKAIEALPGAGPIANPEGWLFRIAHNAALDFLRRRAREQAYSDEDLDMIVDPANPTIDRQAASAGLHTFMRLPVTQRSSVIMMDVLGYSLQEISAMLDTSIPAVKAALHRGRDRLRQIANEPHDRPLPRLGAAERQLLNAYIDRFNARDFDAVRDMLAEEVRLELVAKTRLNGREEVGTYFGNYSRAQDWHLVPGFVENRPAILVHDLNDPATRPAYFIVLAWHDGRLAAIGDFRHARYVADSADMHAL” is “not soluble”; for “MGSDKIHHHHHHMIQQKVRVGLLGVGLDTYWGQFEGLLPRLLTYQDEIAAKIEAMDVQVINTGMVDSPLKANECVLQLKQADVELVFLFISTYALSSTILPVAQQVGKPIIILNIQPASAIDYQKLNSMGDRGRMTGEWLAHCQACSVPEFASVLNRAGVRYDIITGYLSEDYVWEEIASWVDAVRVMYGMRTSRLGVLGHYYCGMLDVYTDLMKQSAVFGTHIELLEMCELKAYREEVSDGELKRKLDEFYDKFNVEASCSSEELVRAARTSVALDKLVNVHQLGAMAYYYEGFCGNDYENIVTSVIAGNTLLTGYGIPVAGECEVKNAQAMKIMSLLKAGGSFSEFYAMDFKDDIVLLGHDGPAHFAIAEEKVKLVPLPLYHGKPGKGLSIQMSVKPGDVTLLSVCEGRDGVFLLAAEGEAVQGETLHIGNTNSRYRFPCGARRFMDQWSKAGPSHHCAIGIGHKVSELKKLAFLLDIPIIVVE” it is “not soluble”. Turning to “MGSDKIHHHHHHMIRGEMTMPSLTFQEIDNHLMNDNKPSNFIIELNKAGIIETEYPFTLLGALKDTPQSPKHHPEGSVWNHTLMVLDNAAERKHLSQNPQVLMWAALLHDLGKAPTTRVRKGRITSYDHDAVGEKLAGQFLRELTRDERFIHQVAKMVRWHMQILFVVKGLPFANVKKMAAEVSIEEIALLGFCDRLGRGEMTPQKKQEEEQTIEKFLVRCMEILQG”, the “soluble on expression in E. coli” value was “not soluble”. The entry for “MGSDKIHHHHHHMIRSLWTAKTGLESQQVKLDVISNNLSNVSTNGFKRSRPVFEDLLYQNVRQPGAQASAVDTLPSGLQVGTGVRPVATERLHTQGGLQNTDNSKDLAINGQGFFAVQMPDGTSAYTRDGSFQIDENGQMVTAGGYPLDPPIVIPENALSVSISQDGVVSVTQPGDTAAQEVGQLTLSKFINPAGLQSMGENLYQETDASGPRNDLIPGMEGAGRLYQGYVETSNVNVVEEMVSMIETQRAYEINSKAVETSDQMLSRLTQL” is “not soluble”.

For “MGSDKIHHHHHHMISATNWVPRGFSSEFPEKYVLDDEEVERINQLAQLNLDDAKATLEEAEGESGVEDDAATGSSNKLKDQLDIDDDLKEYNLEEYDDEEIADNEGGKDVSMFPGLSNDSDVKFHEGEKGEDPYISLPNQEDSQEEKQELQVYPSDNLVLAARTEDDVSYLDIYVYDDGAGFHSSDIPVEEGDEADPDVARGLVRDPALYVHHDLMLPAFPLCVEWLDYKVGSNSEEAANYAAIGTFDPQIEIWNLDCVDKAFPDMILGEPLDNSMVSLKSKKKKKKSKTGHITTHHTDAVLSMAHNKYFRSVLASTSADHTVKLWDLNSGNAARSLASIHSNKNVSSSEWHMLNGSILLTGGYDSRVALTDVRISDESQMSKYWSAMAGEEIETVTFASENIILCGTDSGNVYSFDIRNNENRKPVWTLKAHDAGISTLCSNKFIPGMMSTGAMGEKTVKLWKFPLDDATNTKGPSMVLSRDFDVGNVLTSSFAPDIEVAGTMVIGGVNKVLKLWDVFTNRSVRKSFKSELENVQARAKEEAQKIGKSSRIARKYTSNDNPDTVITIDDQGEDEEEREGGDEHDDMA”, the “soluble on expression in E. coli” value was “not soluble”.

As to “MGSDKIHHHHHHMISMKEEIKKVIEETGLPIITDEKSGAAQWVDLRELRLSYIISVENIKPFYEGLKEGKLLGTKCKKCGRLFFPPQKDCPSCFDSDIEWVELKNEGTLETMTVVFVRPPSFSAYDPYPVAIAKLDDGPRILAWYKGDPQQAKPGMRVKIQVGKRKEGYLMYEIAPA”, the “soluble on expression in E. coli” value is given as “not soluble”. Under “MGSDKIHHHHHHMITTTIFPGRYVQGAGAINILEEELSRFGERAFVVIDDFVDKNVLGENFFSSFTKVRVNKQIFGGECSDEEIERLSGLVEEETDVVVGIGGGKTLDTAKAVAYKLKKPVVIVPTIASTDAPCSALSVIYTPNGEFKRYLFLPRNPDVVLVDTEIVAKAPARFLVAGMGDALATWFEAESCKQKYAPNMTGRLGSMTAYALARLCYETLLEYGVLAKRSVEEKSVTPALEKIVEANTLLSGLGFESGGLAAAHAIHNGLTVLENTHKYLHGEKVAIGVLASLFLTDKPRKMIEEVYSFCEEVGLPTTLAEIGLDGVSDEDLMKVAEKACDKNETIHNEPQPVTSKDVFFALKAADRYGRMRKNLT” stands “soluble”; under “MGSDKIHHHHHHMIWKLSERKDWNSLEQQFGWVRDMNQVPQHTVHHAEGSVAVHTRMVLEALLRQPAYPMLPEQEREILWAAALLHDVEKRSTSVDEGNGQVTSKNHAKRGETTVRTLLYRDIPAPFNIREHIASLVRHHGLPIWLMEREDPLKRACEASLRLDTSLLKQLTVADICGRISTDKEVLLEATEFFEMFCREQQCWGKAREFANGTARFHYFHTPRSYIDYVPHDDFKCGVTLLVGLPGMGKDYYIESRCADMPVVSLDAIRRKHKFSPTDKAANGWVAQTAKEQARIYLRKGQDFIWNATNVSRQRRTQLIDLFITYGARVKIVYIEKPYSVWRRQNSTREYEVPETVLDKMLGRLEVPQLTEAHEVVYVVEE”, “not soluble”.

Take “MGSDKIHHHHHHMIYNYGFLDENTKKEIRRKILKAISIPGYQVPFGSRELPIAKGWGTGGLQLTLSLIGKNDVVKVIDQGSDDSTNACNIRSFIASVSNVETTKDTLEATLIQTRHRIPEEKLKSNQILIFQVPIPETLRIVEPSEVETRRMHSEEDYSRMWVYLYEDIVRFNDISIAVEYPCKVNDRYLMNPSPIPRFDIKKLNMSDNLFLFGAGREKRIYAIPPYTKVEPLEFEDYKFEEEKFEGKYCSLCNSTNTFLDEVYDSDTNEKYYSCSDTSYCEKVRLKNNSIDVTIGGTWNE”: the “soluble on expression in E. coli” value is recorded as “not soluble”. As to “MGSDKIHHHHHHMKAVILAAGRGSRLQALTDERPKALVPFNGVPLLQRAIETLRRCDVSEVGIVAGYRSEMLAPFADTLFYNHRWHSSGIFSSLNCASDWLSAEPCLVSYGDIFYDSTLVSELINHPADIVLGYDPAAVRLWQQRFNDPLPDLENFRLVDGWVSAIGQTATSLEVIQGQYMGLFKVTPAGWQALKKQLQGLTPQARDQTDMTSLLGTLVSEGFPVAGVATHAPWGEIDCPSDVALYERIYPDR”, the “soluble on expression in E. coli” value is recorded as “not soluble”. Under “MGSDKIHHHHHHMKCNDKLAPFEVFDHVVNKKLSFRHVTMDDVDMLHSWMHEEHVIPYWKLNIPLVDYKKHLQTFLNDDHQTLMVGAINGVPMSYWESYWVKEDIIANYYPFEEHDQGIHLLIGPQEYLGQGLIYPLLLAIMQQKFQEPDTNTIVAEPDRRNKKMIHVFKKCGFQPVKEVELPDKIGLLMKCEQNVFEKRWSDWKMNKF” stands “not soluble”; under “MGSDKIHHHHHHMKDGKLYVAFSGGKDSSLVAILAKMALGEERVELVTVDWSPYTYERSREIVRNFAEKHGLKHTFIPSNRMQEKVWKHGPSCNACTRDVKTVLVKRYAQGHLVASGANASDSWGKTGLKVFDGVYSPLCRVGKEEINEMLKFLGLEVKKIGESAGREGCKLKHLLKMLINPDYHGKAVSTANEILLRVLEEHGFKPELANVKIIGPLSRNIALVNVKPLPPEKVMNEIVEKLSAEETIDGVIVVDGPMKLVVLASPAIYRNEESRKWIKEGRLQPEFAFPIEIEWRESKNNKLRTFQVVDARKE”, “not soluble”. Under “MGSDKIHHHHHHMKELIRKLTEAFGPSGREEEVRSIILEELEGHIDGHRIDGLGNLIVWKGSGEKKVILDAHIDEIGVVVTNVDDKGFLTIEPVGGVSPYMLLGKRIRFENGTIGVVGMEGETTEERQENVRKLSFDKLFIDIGANSREEAQKMCPIGSFGVYDSGFVEVSGKYVSKAMDDRIGCAVIVEVFKRIKPAVTLYGVFSVQEEVGLVGASVAGYGVPADEAIAIDVTDSADTPKAIKRHAMRLSGGPALKVKDRASISSKRILENLIEIAEKFDIKYQMEVLTFGGTNAMGYQRTREGIPSATVSIPTRYVHSPSEMIAPDDVEATVDLLIRYLGA” stands “soluble”.

The record behind these values is the DeepSol protein solubility set.
